Biological target: Sar (PXO_RS20790) (Xanthomonas oryzae pv. oryzae PXO99A, UniProt A0A0K0GPT9 1-242)
Assay: EMSA

Binder	binding result
hrpG motif (dsDNA) DNA 1: TTTTGTCCTGGCGTCGGGCGCCAGGCGTCGGCGTC DNA 2: GACGCCGACGCCTGGCGCCCGACGCCAGGACAAAA	binds
hrpX motif (dsDNA) DNA 1: GCTGCATACAATCGTGTGCGCCAGCGAGCTCGGCG DNA 2: CGCCGAGCTCGCTGGCGCACACGATTGTATGCAGC	binds
Sar probe (dsDNA) DNA 1: GGCGTCGAGCGCCAGGC DNA 2: GCCTGGCGCTCGACGCC	binds
Sar mutated probe (dsDNA) DNA 1: GTTCCATCTACTTCACC DNA 2: GGTGAAGTAGATGGAAC	no binding

From paper PMC9742495
